{"source": "patent US12686846B2", "about": "“Plant sweet and yeast MSF transporter capable of transporting different sugars simultaneously” (THE BOARD OF TRUSTEES OF THE UNIVERSITY OF ILLINOIS, priority 2020, dated 2026)", "key": {"[1]": {"system": "SR8D8 expressing transporter", "test": "Glucose and xylose mixed sugar flask fermentation (20 g/L each)", "type": "cell-based, S. cerevisiae", "conditions": "20 g/L of glucose and xylose, YP medium", "protocol": "(§1) For flask fermentation, a single colony was inoculated to 5 or 25 mL YPE ([…], 1% w/v yeast extract, 2% peptone, 5% ethanol) supplemented with 200 μg/ml of geneticin to obtain seed cultures. […] Flask fermentations were maintained at 30° C. and 250 rpm.\n(§2) A xylose fermenting S. cerevisiae yeast (SR8) with HXT1-7Δ, GAL2Δ deletions was used for transporter screening and characterization (SR8D8). SR8D8 was grown in YPE medium/plate (10 g/L yeast extract, 20 g/L peptone, and 5 g/L ethanol). […] SRD8 strains transformed with plasmid containing KanMX marker conferring resistance to G418 (geneticin) were propagated on YPE supplemented with 200 μg/ml of geneticin. For growth and flask fermentation experiments all media was supplemented with 200 μg/ml of geneticin for plasmid maintenance. Biomass was calculated from the OD600 measured using a Biomate 5 UV-visible spectrophotometer (Fisher, NY, USA). All growth rates were measured using a Bioscreen C plate reader system (Growth Curves USA, Piscataway, NJ, USA). A 2 μL inoculum of fully grown culture was added into 200 μL YP (+200 μg/ml Geneticin) with varying concentrations of different sugars. A wide band filter (420-580 nm) was used to measure optical density. Bioscreen C values represent mean value from three biological replicates. In all cases, the Bioscreen C was set to maintain a temperature of 30° C. and high aeration through high continuous shaking."}, "[2]": {"system": "SR8D8 expressing transporter", "test": "Transporter screening for growth on glucose or xylose (Bioscreen C)", "type": "cell-based, S. cerevisiae", "conditions": "glucose or xylose containing medium, OD600", "protocol": "ScGal2 expressing SR8D8 were used as a positive control (FIG. 3). Most of the AtSWEETs and putative oleaginous transporters expressing strains were not able to grow on glucose or xylose.\nas §2"}, "[3]": {"system": "SR8D8 expressing transporter", "test": "Sole glucose or xylose flask fermentation", "type": "cell-based, S. cerevisiae", "protocol": "as §1, §2"}, "[4]": {"substrate": "OC[C@H]1OC(O)[C@H](O)[C@@H](O)[C@@H]1O", "test": "cells, lysate or membranes", "conditions": "other: initial glucose uptake (5 s), 30° C., pH 6.5, 0.2 to 100 mM glucose, ± SEM in Table 1"}, "[5]": {"system": "SR8D8 expressing transporter", "test": "Mixed sugar fermentation at industrially relevant sugar concentrations", "type": "cell-based, S. cerevisiae", "conditions": "7% glucose and 4% xylose (70 g/L, 40 g/L)", "protocol": "as §1"}, "[6]": {"system": "transporter-overexpressing SR8D8", "test": "Inhibition of xylose uptake by glucose", "type": "cell-based, S. cerevisiae", "conditions": "25 mM or 100 mM glucose", "protocol": "SR8D8 containing the respective plasmid was grown on selective YPE medium to an OD600 of 1-1.5, harvested by centrifugation, and washed twice in ice-cold uptake buffer (100 mM potassium phosphate, pH 6.5). C14 labeled sugar uptake assay was done according to Boles and Oreb. Radioactivity was analyzed in a Beckman-Coulter LS6500 multi-purpose liquid scintillation counter (Beckman-Coulter, CA, USA).\nSugar solutions contained 0.135-0.608 μCi of D-[U-^14C]-glucose (290-300 mCi/mmol) or D-[1-^14C]-xylose (55 mCi/mmol) (PerkinElmer, MA, USA). Calculation of Km (Michaelis constant), Vmax (maximal initial uptake velocity), and K (inhibitor constant for competitive inhibition) was done by nonlinear regression analysis and global curve fitting in Prism 7 (GraphPad Software) with values of three independent measurements."}}, "note": "Values joined by “and” are separate entries in the source; they are usually repeats but may differ in a detail not shown here. Equal entries are not always repeated. “Also recorded” adds a separate entry of the source."}
{"molecule": "AtSWEET5: Arabidopsis thaliana SWEET5 transporter polypeptide (protein, UniProt Q9FM10 1-240, looked up) Bidirectional sugar …: MTDPHTARTIVGIVGNVISFGLFCAPIPTMVKIWKMKSVSEFKPDPYVATVLNCMMWTFYGLPFVQPDSLLVITINGTGLFMELVYVTIFFVFATSPVRRKITIAMVIEVIFMAVVIFCTMYFLHTTKQRSMLIGILCIVFNVIMYAAPLTVMKLVIKTKSVKYMPFFLSLANFMNGVVWVIYACLKFDPYILIPNGLGSLSGIIQLIIYITYYKTTNWNDDDEDKEKRYSNAGIELGQA", "values": [{"measurement": "glucose and xylose mixed sugar fermentation phenotype", "setting": "[1]", "value": "simultaneously utilize glucose and xylose"}, {"measurement": "growth / transport capacity on glucose or xylose", "setting": "[2]", "value": "capable of sustaining an efficient growth on glucose or xylose"}]}
{"molecule": "AtSWEET1: Arabidopsis thaliana SWEET1 transporter polypeptide, SEQ ID NO:1 (protein, Arabidopsis thaliana SWEET1 (AtSWEET1) transporter polypeptide) MNIAHTIFGVFGNATALFLFLAPSITFKRIIKNKSTEQFSGIPYPMTLLNCLLSAWYGLPFVSKDNTLVSTINGTGAVIETVYVLIFLFYAPKKEKIKIFGIFSCVLAVFATVALVSLFALQGNGRKLFCGLAATVFSIIMYASPLSIMRLVVKTKSVEFMPFFLSLFVFLCGTSWFVYGLIGRDPFVAIPNGFGCALGTLQLILYFIYCGNKGEKSADAQKDEKSVEMKDDEKKQNVVNGKQDLQV", "values": [{"measurement": "glucose and xylose mixed sugar fermentation phenotype", "setting": "[1]", "value": "complete preference for glucose with negligible xylose consumption; also recorded: solo glucose fermentation"}, {"measurement": "sole sugar fermentation performance", "setting": "[3]; glucose or xylose conditions, YP medium", "value": "robust glucose fermentation but inefficient xylose fermentation"}, {"measurement": "xylose consumption", "setting": "[3]; xylose fermentation, within 50 h", "value": 5, "unit": "g/L"}, {"measurement": "growth / transport capacity on glucose or xylose", "setting": "[2]", "value": "can sustain growth of SR8D8 in glucose and xylose containing medium; also recorded: glucose transporter with almost no xylose transport capacity"}]}
{"molecule": "F168A: AtSWEET1 single mutation F168A (protein, UniProt Q8L9J7 1-247, looked up, variant F168A) Bidirectional sugar …: MNIAHTIFGVFGNATALFLFLAPSITFKRIIKNKSTEQFSGIPYPMTLLNCLLSAWYGLPFVSKDNTLVSTINGTGAVIETVYVLIFLFYAPKKEKIKIFGIFSCVLAVFATVALVSLFALQGNGRKLFCGLAATVFSIIMYASPLSIMRLVVKTKSVEFMPFFLSLAVFLCGTSWFVYGLIGRDPFVAIPNGFGCALGTLQLILYFIYCGNKGEKSADAQKDEKSVEMKDDEKKQNVVNGKQDLQV", "values": [{"measurement": "glucose and xylose mixed sugar fermentation phenotype", "setting": "[1]", "value": "capable of improving both glucose and xylose uptake rate"}]}
{"molecule": "Lipomyces starkeyi LST1_205437 transporter, wild type, SEQ ID NO: 4 (Lipomyces starkeyi NRRL Y-11557) (protein) MGFLGFLNRSQASEPVEKESTATTPSEGRTPQRPLSPAVGVPLEQDFETQLSAKDAPLLAFILGGVASVGGFMFGYQTGQISGFLEMSDFKTRFAACNSQTGQCTFSAARQGTIVGLFSIGTLIGSLIAAPIADRIGRRLTISFWAFFFMIGTVLEISSSHVWVQFAMGRFVGGLGIGALSVVVPMYQSESTPRMIRGVIVSSYQLMVTLGIWLAYMINWGTESLQGSQSWRITNGMSFLWALVLGIAILGLPESPRYAYRVGREEEARKNMARLYKLSPNHPIINLEIQEIQEKLDAERVGGDHPWYEIFTGPRMLYRTILGMVLQAGQQLTGANYFFYYGTTVFSATGLSNSYVTQIILGSVNVGGTIAGLWLIENCGRRKALMGGAAWMFMCFMVFAFVGHFSLDHQNPEATPQAGAALVVFSCLFIIAFAMTWGPIVWAIVGELYPARYRATCMGLATSSNWLFNFLIGFFTTFITGDIDYLYGLVFAGCCFALFFIVYFFVIETKGRSLEEIDTMYVLHVNPINSAKWDSSQLMRDGDGLVNTDDLYLEAGGNRFAKDEHSAHEMIPSHDENAPGPSHTSHADIEKAESSGAESRDAL", "values": [{"measurement": "Km", "setting": "[4]", "value": 4975, "unit": "µM"}, {"measurement": "Vmax", "setting": "[4]", "value": 46.89, "unit": "nmol/min/mg"}]}
{"molecule": "A175F: AtSWEET7 single mutation A175F (protein, UniProt Q8LBF7 1-258, looked up, variant A175F) Bidirectional sugar …: MVFAHLNLLRKIVGIIGNFIALCLFLSPTPTFVRIVKKKSVEEYSPIPYLATLINCLVWVLYGLPTVHPDSTLVITINGTGILIEIVFLTIFFVYCGRQKQRLIISAVIAAETAFIAILAVLVLTLQHTTEKRTMSVGIVCCVFNVMMYASPLSVMKMVIKTKSVEFMPFWLSVFGFLNAGVWTIYALMPFDPFMAIPNGIGCLFGLAQLILYGAYYKSTKRIMAERENQPGYVGLSSAIARTGSEKTANTNQEPNNV", "values": [{"measurement": "glucose and xylose mixed sugar fermentation phenotype", "setting": "[1]", "value": "capable of improving glucose and xylose uptake rate"}]}
{"molecule": "AtSWEET4: Arabidopsis thaliana SWEET4 transporter polypeptide (protein, UniProt Q944M5 1-251, looked up) Bidirectional sugar …: MVNATVARNIAGICGNVISLFLFLSPIPTFITIYKKKKVEEYKADPYLATVLNCALWVFYGLPMVQPDSLLVITINGTGLAIELVYLAIFFFFSPTSRKVKVGLWLIGEMVFVGIVATCTLLLFHTHNQRSSFVGIFCVIFVSLMYIAPLTIMSKVIKTKSVKYMPFSLSLANFLNGVVWVIYALIKFDLFILIGNGLGTVSGAVQLILYACYYKTTPKDDEDEEDEENLSKVNSQLQLSGNSGQAKRVSA", "values": [{"measurement": "glucose and xylose mixed sugar fermentation phenotype", "setting": "[1]", "value": "co-consumption of glucose and xylose with a faster glucose consumption rate than that of xylose; also recorded: co-fermentation with glucose preference"}, {"measurement": "glucose and xylose mixed sugar fermentation phenotype", "setting": "[1]; listed as SWEET4", "value": "simultaneously utilize glucose and xylose"}, {"measurement": "growth / transport capacity on glucose or xylose", "setting": "[2]", "value": "substantial growth on xylose and glucose; also recorded: both glucose and xylose transport capacity"}, {"measurement": "growth / transport capacity on glucose or xylose", "setting": "[2]; listed as SWEET4", "value": "capable of sustaining an efficient growth on glucose or xylose"}]}
{"molecule": "Saccharomyces cerevisiae ScGal2 (Gal2) transporter, SEQ ID NO:32 (Saccharomyces cerevisiae S288C) (protein) MAVEENNMPVVSQQPQAGEDVISSLSKDSHLSAQSQKYSNDELKAGESGSEGSQSVPIEIPKKPMSEYVTVSLLCLCVAFGGFMFGWDTGTISGFVVQTDFLRRFGMKHKDGTHYLSNVRTGLIVAIFNIGCAFGGIILSKGGDMYGRKKGLSIVVSVYIVGIIIQIASINKWYQYFIGRIISGLGVGGIAVLCPMLISEIAPKHLRGTLVSCYQLMITAGIFLGYCTNYGTKSYSNSVQWRVPLGLCFAWSLFMIGALTLVPESPRYLCEVNKVEDAKRSIAKSNKVSPEDPAVQAELDLIMAGIEAEKLAGNASWGELFSTKTKVFQRLLMGVFVQMFQQLTGNNYFFYYGTVIFKSVGLDDSFETSIVIGVVNFASTFFSLWTVENLGHRKCLLLGAATMMACMVIYASVGVTRLYPHGKSQPSSKGAGNCMIVFTCFYIFCYATTWAPVAWVITAESFPLRVKSKCMALASASNWVWGFLIAFFTPFITSAINFYYGYVFMGCLVAMFFYVFFFVPETKGLSLEEIQELWEEGVLPWKSEGWIPSSRRGNNYDLEDLQHDDKPWYKAMLE", "values": [{"measurement": "Km", "setting": "[4]", "value": "1613 µM and 1600 ± 200 µM"}]}
{"molecule": "ScGal2: S. cerevisiae Gal2 hexose transporter, control; SEQ ID NO:32 (protein, protein sequence alignmnet of ScGal2) MAVEENNMPVVSQQPQAGEDVISSLSKDSHLSAQSQKYSNDELKAGESGSEGSQSVPIEIPKKPMSEYVTVSLLCLCVAFGGFMFGWDTGTISGFVVQTDFLRRFGMKHKDGTHYLSNVRTGLIVAIFNIGCAFGGIILSKGGDMYGRKKGLSIVVSVYIVGIIIQIASINKWYQYFIGRIISGLGVGGIAVLCPMLISEIAPKHLRGTLVSCYQLMITAGIFLGYCTNYGTKSYSNSVQWRVPLGLCFAWSLFMIGALTLVPESPRYLCEVNKVEDAKRSIAKSNKVSPEDPAVQAELDLIMAGIEAEKLAGNASWGELFSTKTKVFQRLLMGVFVQMFQQLTGNNYFFYYGTVIFKSVGLDDSFETSIVIGVVNFASTFFSLWTVENLGHRKCLLLGAATMMACMVIYASVGVTRLYPHGKSQPSSKGAGNCMIVFTCFYIFCYATTWAPVAWVITAESFPLRVKSKCMALASASNWVWGFLIAFFTPFITSAINFYYGYVFMGCLVAMFFYVFFFVPETKGLSLEEIQELWEEGVLPWKSEGWIPSSRRGNNYDLEDLQHDDKPWYKAMLE", "values": [{"measurement": "glucose and xylose mixed sugar fermentation phenotype", "setting": "[1]", "value": "sequential fermentation"}, {"measurement": "glucose and xylose mixed sugar fermentation phenotype", "setting": "[1]; listed as GAL2", "value": "transport both glucose and xylose in a sequential manner; also recorded: sequential manner of sugar utilization"}, {"measurement": "mixed sugar utilization profile at high sugar", "setting": "[5]", "value": "sequential utilization of glucose and xylose"}, {"measurement": "inhibition of xylose transport by glucose (in words)", "setting": "[6]", "value": "complete xylose inhibition even at the presence of 25 mM glucose"}]}
